The assay concerns the target KillerRed. The assay is described as follows: SEC. On the technique in general: Size exclusion chromatography separates by hydrodynamic size, large species first.

In paper PMC3775092 one finds stoichiometry N data, which are given here for one substance.

Take KillerRed: the stoichiometry N (commonly a count of units in the complex or per binding partner) was 2.
